According to paper PMC6203815:

Assay: Ni-NTA recovery from HEK293, Coomassie SDS-PAGE
Settings: glycan lost; control: wild-type Pfs48/45 6C

B1: Pfs48/45 6C: S305A (protein)
parent chain: MMLYISAKKAQVAFILYIVLVLRIISGNNDFCKPSSLNSEISGFIGYKCNFSNEGVHNLKPDMRERRSIFCTIHSYFIYDKIRLIIPKKSSSPEFKILPEKCFQKVYTDYENRVETDISELGLIEYEIEENDTNPNYNERTITISPFSPKDIEFFCFCDNTEKVISSIEGRSAMVHVRVLKYPHNILFTNLTNDLFTYLPKTYNESNFVSNVLEVELNDGELFVLACELINKKCFQEGKEKALYKSNKIIYHKNLTIFKAPFYVTSKDVNTECTCKFKNNNYKIVLKPKYEKKVIHGCNFSSNVSSKHTFTDSLDISLVDDSAHISCNVHLSEPKYNHLVGLNCPGDIIPDCFFQVYQPESEELEPSNIVYLDSQINIGDIEYYEDAEGDDKIKLFGIVGSIPKTTSFTCICKKDKKSAYMTVTIDSAYYGFLAKTFIFLIVAILLYI
  expression_or_secretion: decreases
